The values below come from US20060259987A1.

Where two headings read alike, the source gives them in different places.

What all share (test): cell-based or functional assay
In one assay the target is factor Xa (human) (UniProt P00742).
Assay [1] deals with human neutrophil cathepsin G (human) (UniProt P08311).
For assay [2], the target named is human neutrophil elastase (human) (UniProt P08246).
A further assay deals with thrombin (human) (UniProt P00734).

Sequence of human neutrophil elastase (human) (P08246 30-247 limits assumed): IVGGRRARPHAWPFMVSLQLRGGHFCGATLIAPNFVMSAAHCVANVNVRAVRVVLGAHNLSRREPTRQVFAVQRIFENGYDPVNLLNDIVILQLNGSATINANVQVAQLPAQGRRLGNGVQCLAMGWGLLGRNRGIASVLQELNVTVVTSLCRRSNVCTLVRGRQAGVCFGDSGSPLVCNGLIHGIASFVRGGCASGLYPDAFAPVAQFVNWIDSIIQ
Sequence of human neutrophil cathepsin G (human) (P08311 21-244 limits assumed): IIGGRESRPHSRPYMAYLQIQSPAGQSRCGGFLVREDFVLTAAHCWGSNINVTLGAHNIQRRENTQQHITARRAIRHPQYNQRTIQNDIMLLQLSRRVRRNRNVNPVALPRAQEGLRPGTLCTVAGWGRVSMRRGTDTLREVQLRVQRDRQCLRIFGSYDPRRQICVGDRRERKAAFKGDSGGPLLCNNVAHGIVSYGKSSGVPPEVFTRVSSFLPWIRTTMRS

As to “plasma-derived ATIII (from UniProt P01008 33-464)”, in the assay with factor Xa (human), the IC50 fXa/UFH; HCA #4 stood at 13 nM, the rsd. Xa catG; CA #12; stg1 conc 200 is 1%, the rsd. Xa catG; CA #17; stg1 conc 3 was found to be 77% and the rsd. Xa catG; CA #17; stg1 conc 7 worked out at 12%. In the assay with factor Xa (human), the rsd. Xa catG; CA #17; stg1 conc 23 was -7%, the rsd. Xa hne; CA #14; stg1 conc 200 amounted to 101%, the rsd. Xa hne; CA #17; stg1 conc 23 was determined as 98% and the rsd. Xa no add; CA #17; stg1 conc 1 is 90%. In the assay with factor Xa (human), the rsd. Xa no add; CA #17; stg1 conc 3 was 75% and the rsd. Xa no add; CA #17; stg1 conc 23 came to 1%. For the same substance, the IC50 fXa/UFH; HCA #4 with factor Xa (human) (record 2) worked out at 13 nM. In addition, the rsd IIa, catG (CA #14, stg 1 conc 200) in assay [1] came out at 1%. In assay [2], this substance came in with a halflife, min (HNE/hep) of 2.9 min; a rsd IIa, HNE (CA #14, stg 1 conc 200) of 100%; a rsd Xa, HNE (CA #14, stg 1 conc 200) of 101%.
In the assay with factor Xa (human), “human plasma-derived ATIII (from UniProt P01008 33-464)” returned an IC50 fXa/UFH; HCA #4 of 13 nM, a rsd. Xa catG; CA #12; stg1 conc 200 (% of no-ATIII control) of 1, a rsd. Xa catG; CA #17; stg1 conc 3 (% of no-ATIII control) of 77 and a rsd. Xa catG; CA #17; stg1 conc 7 (% of no-ATIII control) of 12. In the assay with factor Xa (human), this substance had a rsd. Xa catG; CA #17; stg1 conc 23 (% of no-ATIII control) of -7, a rsd. Xa hne; CA #14; stg1 conc 200 (% of no-ATIII control) of 101, a rsd. Xa hne; CA #17; stg1 conc 23 (% of no-ATIII control) of 98 and a rsd. Xa no add; CA #17; stg1 conc 1 (% of no-ATIII control) of 90. In the assay with factor Xa (human), the rsd. Xa no add; CA #17; stg1 conc 3 (% of no-ATIII control) came to 75 and the rsd. Xa no add; CA #17; stg1 conc 23 (% of no-ATIII control) was determined as 1.
Regarding “ATIII N135A (from UniProt P01008 33-464)”, in the assay with factor Xa (human), the IC50 fXa/UFH; HCA #2 came to 17 nM, the rsd. Xa catG; CA #8; stg1 conc 200 worked out at 1%, the rsd. Xa catG; CA #8; stg1 conc 200 (% of no-ATIII control) stood at 1 and the rsd. Xa catG; CA #9; stg1 conc 200 was determined as 1%. In the assay with factor Xa (human), this substance returned a rsd. Xa catG; CA #9; stg1 conc 200 (% of no-ATIII control) of 1, a rsd. Xa hne; CA #8; stg1 conc 200 of 90%, a rsd. Xa hne; CA #8; stg1 conc 200 (% of no-ATIII control) of 90 and a rsd. Xa hne; CA #9; stg1 conc 200 of 106%. Moreover, in the assay with factor Xa (human), the rsd. Xa hne; CA #9; stg1 conc 200 (% of no-ATIII control) was determined as 106, the rsd. Xa no add; CA #8; stg1 conc 200 was found to be 1%, the rsd. Xa no add; CA #8; stg1 conc 200 (% of no-ATIII control) is 1 and the rsd. Xa no add; CA #9; stg1 conc 200 (% of no-ATIII control) was 2. The IC50 fXa/UFH; HCA #2 with factor Xa (human) (record 2) was found to be 17 nM. In addition, in the assay with thrombin (human), the rsd. IIa catG; CA #8; stg1 conc 200 was determined as 0%, the rsd. IIa catG; CA #8; stg1 conc 200 (% of no-ATIII control) came out at 0, the rsd. IIa catG; CA #9; stg1 conc 200 turned out to be 2% and the rsd. IIa catG; CA #9; stg1 conc 200 (% of no-ATIII control) came to 2. In the assay with thrombin (human), this substance returned a rsd. IIa hne; CA #8; stg1 conc 200 of 90%, a rsd. IIa hne; CA #8; stg1 conc 200 (% of no-ATIII control) of 90, a rsd. IIa hne; CA #9; stg1 conc 200 of 100% and a rsd. IIa hne; CA #9; stg1 conc 200 (% of no-ATIII control) of 100. Besides, in the assay with thrombin (human), the rsd. IIa no add; CA #8; stg1 conc 200 came out at 1%, the rsd. IIa no add; CA #8; stg1 conc 200 (% of no-ATIII control) is 1, the rsd. IIa no add; CA #9; stg1 conc 200 was found to be 2% and the rsd. IIa no add; CA #9; stg1 conc 200 (% of no-ATIII control) was 2.
For “ATIII S137A (from UniProt P01008 33-464)”, in the assay with factor Xa (human), the IC50 fXa/UFH; HCA #4 was determined as 12 nM, the rsd. Xa catG; CA #6; stg1 conc 200 (% of no-ATIII control) was 0, the rsd. Xa catG; CA #13; stg1 conc 200 (% of no-ATIII control) stood at 1 and the rsd. Xa hne; CA #6; stg1 conc 200 (% of no-ATIII control) came to 81. In the assay with factor Xa (human), the rsd. Xa hne; CA #13; stg1 conc 200 (% of no-ATIII control) turned out to be 87, the rsd. Xa no add; CA #6; stg1 conc 200 (% of no-ATIII control) was 0 and the rsd. Xa no add; CA #13; stg1 conc 200 (% of no-ATIII control) was determined as 2. For the same substance, in the assay with thrombin (human), the IC50 IIa/UFH; HCA #4 amounted to 13 nM, the rsd. IIa catG; CA #6; stg1 conc 200 (% of no-ATIII control) turned out to be 0, the rsd. IIa catG; CA #13; stg1 conc 200 (% of no-ATIII control) came to 1 and the rsd. IIa hne; CA #6; stg1 conc 200 (% of no-ATIII control) worked out at 81. For the same substance, in the assay with thrombin (human), the rsd. IIa hne; CA #13; stg1 conc 200 (% of no-ATIII control) came out at 89, the rsd. IIa no add; CA #6; stg1 conc 200 (% of no-ATIII control) is 0 and the rsd. IIa no add; CA #13; stg1 conc 200 (% of no-ATIII control) came out at 4.
